# Measured values taken from the nanobody polyreactivity screen of Harvey et al. (2022).
# Test: yeast display, Sf9 membrane polyspecificity reagent, FACS + sequencing; frameworks hold sequencing errors
# Method in brief: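 Polyreactivity labels are assigned by the sorting gate from which each nanobody was recovered. The gates were low and high (top ~1%), set on anti-HA fluorescence for expression and streptavidin fluorescence for reagent binding. Before sorting, galactose-induced (36–48 hours) yeast display cells were stained for 1 hour at 4 °C with 10% biotinylated, detergent-solubilized Sf9 membrane reagent.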
row,Sequence,polyreactivity (PSR sort gate)
1,QVQLVESGGGLVQAGGSLRLSCAASGFTFDSYAMGWYRQAPGKERELVAAITSDGSTYYADSVKGRFTISRDNAKNTVYLQMNSLKPEDTAVYYCAADGISLYATAYDYWGQGTQVTVSS,low polyreactivity
2,QVQLVESGGGLVQAGGSLRLSCAASVLTFYEYAMGWYRQAPGKERELVASISGRAASTDYADSVKGRFTISRDNAKNTVYLQMNSLKPEDTAVYYCAVGVVGDIDTDGYWGQGTQVTVSS,low polyreactivity
3,QVQLVESGGGLVQAGGSLRLSCAASGSTFAGYTMGWYRQAPGKERELVAAITGGGSTYYADSVKGRFTISRDNAKNTVYLQMNSLKPEDTAVYYCAARWWTYGIGYGYWGQGTQVTVSS,high polyreactivity
4,QVQLVESGGGLVQAGGSLRLSCAASGYTFLGYAMGWYRQAPGKERELVAAIRRSGGRPYYADSVKGRFTISRDNAKNTVYLQINRLKPEDTAVYYCAQGYVGEYDYWGQGTQVTVTS,high polyreactivity
5,QVQLVESGGGLVQAGGSLRLSCAASGSIFRVNTMGWYRQAPGKERELVAGITSRGGSTYYADSVKGRFTISRDNAKNTVYLQMNSLKPEDTAFYYCANRAYGTALYRGYGYWGQGTQVPVSS,low polyreactivity
6,QVQLVESGGGLVQAGGSLRLSCAASGIIFYDYAMGWYRQAPGKERELVAAISGSGVGTYYADSVKGRFTISRDNAKNTVYLQMNSLKPEDTAVYYCATRYQWGGPYYRYDYWGQGTQVTVSS,high polyreactivity
7,QVQLVESGGGLVQEGGSLRLSCAASGSIFGVYTMGWYRPEPGKERELVAAINWGGTSTYYADSVKGRFTISRDNAKNTVYLQMNSLKPEDTAVYYCNAERRRRYPYNYWGHGTQVTVSS,high polyreactivity
8,QVQLVESAGGLVQAGGSLRLSSAASGRTFIVYAMGWYRQARGKERELVAGITRGSTNYADSVKGRFTISRDNAKNTVYVQMNCLKPEDTAVYYCAARWQWLNGYYYWGQGTQVTVSS,high polyreactivity
9,QVQLVESGGGIVQAGGSLRLSCAASGYIFDHYAMGWYRQAPGKERELVAAISRSAGSTYYADSVKGRFTISRDNAKNTVYLQMKSLKPEDTAVYYCNAVVAVRSWRKYEYWGQGTQVTVSS,high polyreactivity
10,QVQLVESGGGLVQAGGSLRLSCAASGSTFEDYPLGWYRQAPGKERELVAAISHIGGSTYYADSVKGRFTISRDNAKNTVYLQMNSLKPEDTAVYYCAKGGFSSKFDYWGQGTQVTVSS,low polyreactivity
11,QVQLVESGGGLVQGGGSLRLSCAASGRNFKYNTMGWYRQAPGKERDLVAAISLSSGSGGGTRYADSVKGRFTISRDNAKNSVYLQMNSLKPEDSAVYYCAARHRYTNEYDYWGHGTQVTVSS,low polyreactivity
12,QVHLVDSGGGLVQEGGSLRLSCAASGFISPKYRMGWYRQAPRKERELVAANTTSDGSTSYADSVKGRFRISRDNAKTTVYLQMISLKPEDSAVYYCAAGYESWRSWVRRYLRMDYWGQGTQVTLSS,high polyreactivity
13,QVQLVESGGVLVQAGGSLRLSCAASGSIFSAYVMGWYRQAPGKERELVAAINRGGNTYYADSVKGRFTISRDNAKNTVYLQMNSLKPEDTAVYYCNAQWYYLRYRYDYWGQGTQVTVSS,high polyreactivity
14,QVQLVESGGGLVQAGGSLRLSCAASGRTFYSYAMGWYRPAPGKERELVAAINTSGGRTHYADSVKGRFTISRDNGKNTVYLQMNSLKPEDTAVYYCAAEVFRTRTWEYYYWGQGTQVTVSS,high polyreactivity
15,QVQLVESGGGLVQAGGSLRLSCAASGGIFTGYAMGRYRQAPGKERELVAAISSGGTTYYADSVKGRFTISRDNAKNTVDLQMNSLKPEDTAVYYCAAGFYLRAVWMDYWGQGSQVTVSS,high polyreactivity
16,QVQLVESGGGLVQAGGSLRLSCAASGRIFGRYAMGWYRQAPGKEREVVATITRNGGGTYADSVKGRFTISRDNAKNTVYLQMNSLKPEDTAVYYCAVDTAAAWERRGFDSWGQGTQVTVSS,low polyreactivity
17,QVQLVETGGGLVQAGGSLRLSCAASGRTYLIYAMGWYRQAPGKERELVAAIRDRGATTYYADSVKGRFTISRDNAKNTVYLQMNSLKPEETAVYYCAARNGAYPALKEGDYWGQGTQVTVSS,high polyreactivity
18,QVQLVESAGGLVQAGGSLRLSCAASGFIFGKNAMGLYRQAPGKERELVAVITRSGSRTYYADSVKGRLTISRDNAKNTVYLQMNSLKPEDTAVYYCATDNVYAYDYWGLGTQVTVSS,high polyreactivity
19,QVQLVESGGGLVQAGGSLRLSCAASGFNYYRYVMVWYRQAPGKERELVAAITTSGGSTYYADSVKGRFTISRDNAKNTVYLQMNSLKPEDTAVYYCAAVYIPSRQWYDYWGQGTQVTVSS,high polyreactivity
20,QVQLVESVGGLVQAGGSLRLSCAASGLIFIISTMGWDRQAPGKERELVAAITRRGGITYYADSVKGRFTISRDNAKNTVYLQMNSLKPEDTAVYYCAVVRPYNIWYDYWGQGTQVTVSS,low polyreactivity
21,QVQLVESGGGLVQAGGSLRLSCAASGRTFPHYAMGWYRQAPGKERELVAAITSGGTTNYADSVKGRFTISRDNEKNTVYLQLNSLKPEDTAVYYCNADMDLDTAWDGFVAYDYWGQGTQVTVSS,low polyreactivity
22,QVQLVESGGGLVQAGGSLRLSCAASGNIFRKNAMGWYRQAPGKERELVAAISRRGGNTYYADSVKGRFTISRDNAKNTVYLQMNSLKPEDTAVYYCAADWSPTAASDYWGQGTQVTVSS,high polyreactivity

row,Sequence,polyreactivity (PSR sort gate)
1,QVQLVESGGGLVQAGGSLRLSCAASGIFRRYAMGWYRQAPGKERELVAAISSSGGSTDYADSVKGRFTISRDNAKNTVYLQMNSLKPEDTAVYYCNAYDQHGWWSYAYDYWGQGTQVTVSS,high polyreactivity
2,QVQLVESGGGLVQAGGSLRLSCAASGSTFSRYTMGWYRQAPGKERELVAAIRRSGASTYYADSVKGRFTISRDNAKNTVYLQMNSLKPEDTAVYYCAVGRYRYGYWGQGTQVTVSS,high polyreactivity
3,QVQLVESGGGLVQAGGSLRLSCAASGSIFWVYTMGWYREAPGKERELVAASRSRGGSTYYADSVKGRFTISRDKAKNTVYLQMNSLKPEDTAVYYGNADYYYEVDSWGQGTQVTVSS,low polyreactivity
4,QVQLVESGGGLVQAGGSLRLSCAASGSIFRTNAMGWYRQAPGKERELVAAISRRGSNTYYADSVKGRFTISRDNAKNTVYLLMNSMKPEDTAVYYCAADVSGSKYDYWGQGTQVTVSS,high polyreactivity
5,QVQLVESGGGLVQAGGSLRLSCAASGRIFSFNTMGWYRQAPGKERELVAAITSSSARTYYADSVKGRFTISRDNAKNTVYLQMNSLKPEDTAVYYCAADSTLSRYDYWGQGTQVTVSS,high polyreactivity
6,QVQLVESGGGLVQAGGSLRLSCAASGRIFRGYAMGWYRQAPGKEREFVADITRSGGSTYYADSVKGRFTISRDNAKNTVYLQMNSLKPEDTAVYYCAREWYQYSPYHRFDYWGQGTQVTVSS,high polyreactivity
7,QVQLVESGGGLVQAGGSLRLTCAASGITFISYAMGWYIQAPGKERELVAAITKSGGRTYYADSVKGRFTISRDNAKKTVYLQMNSLKPEDTAVYYCAAYHLRDNRIGGGYWGQGTQVTVSS,high polyreactivity
8,QVQLVESGGGLVQAGGSLRLSCAASGRTFGGNAMGWYRQAPGKERELVATIRSSSSTNYADSVKGRFTISRDNAKNTVYLQMNSLKPEDTAVYYCARRSQRGIYSMYYWGQGTQVTVSS,low polyreactivity
9,QVQLVESGGGLVQAGGSLRLSCAASGRIFGHYAMGWYRPAPGKERELVAAISTGGSTYYADSVKGRFTISRDNAKNTVYFQMNSLKPEDTAVYFCNKRPVRRKYDYWGQGTHVTVSS,low polyreactivity
10,QVQLVETGGGLVQAGGSLRLSCAASGGIFEINVMGWYRQAPGKERELVAGINWSGTSTYFADSVKGRFTISRDNAKNTVYLQMNTLTPEDTSVYYCAAESYYRYVVPYDYWGQGTQVTVSS,high polyreactivity
11,QVQLVESGGGLVQAGGSLRLSCAASGFTNAMGWYRQAPGKERELVAAISYSGDSTNYADSVKGRFTISRDNAKNTVYLQINSVKPEDTAVYYCNASSPYDYDWGQGTHVTVSS,low polyreactivity
12,QVQLVESGGGLVQAGGSLRLSCAASGRTFYYYAMGWYRQAPGKERELVAAITSGGSTKYADSVKGRFTISRDNAKNTVYLQMNSLKPEDTAVYYCAKRYFSSSRYYYWGQGTQVTVSS,high polyreactivity
13,QVQLVESGGGLVQAGGSLRLSCAASGFNFSQYAMGWYRQAPGKERELVAAISSGSTYADSVKGRFTISRDNAKNSVYLQMNSLKREDTAVYYCANDPFSRGSRRYDYWGQGTQVTVSS,low polyreactivity
14,QVQLVESGGGLVQAGGSLRLSCAASGRISAFNSMGWYRQAPGKERELVAAINVSGGNTYYADSVKGRFTISRDNAKNTFFLQMNSLKPEDTAVYYCAAERRRWGLDYYYWGQGTQVTVSS,high polyreactivity
15,QVQLVESGGGLVQAGGSLRLSCAASGITFRGNVMGWYRQAPGKERELVAAISGSSGRTYYADSVKGRFTISRDNAKNTVYLQMNSLKPEDTAVYYCAAYYGTKYDYWGQGTQVTVSS,high polyreactivity
16,QVQLVESGGGLVQAGGSLRLSCAASGLIFRSYAMGWYRQAPGKERELVARISIRGGSTYYADSVKGRFTISRDNAKNTVYLQLNSLKPEVTAVYYCAAVGYFGGYRYDYWGHGTQVTVSS,high polyreactivity
17,QVQLVESGGGLVQAGGSLRLSCAASGRTFLPYAMGWYRQAPGKERELVAAITSGGSTSYADSVKGRFTISRDNAKNTVYLQMNSLKPEDSAVYYCAKGYYRFRRFYYGGYYWGQGTQVTVSS,low polyreactivity
18,QVQLVESGRGLVQAGGSLRLSCAPSGFTFHNNVMGWYRQAPGKERELVATISKSGGSTYYADSVKGRFTISRDNAKNTVYLQMNSLKPEDTAVYYCARRYRDYGRYGYWGQGTQVTVSS,high polyreactivity
19,QVQLVESGGGLVQAGGSLRVSCAASGRTFRPNAMGWYRQAPGKERELVAAISGGGGSTYYADSVKGRFTISRDIAKNTVYLLMNSLKPEVTAVYYCNKVEQGRYGYWGQGTQVTVSS,high polyreactivity
20,QVQLVESGGGLVQAGCSLRLSCSASGSIFYSYAMGWYRQAPGKERELVAAITSVVSTNYADSVKGRFTISRDYAKNTVYLQMNRLKTEDTAVYYCAAGYLRLYYVCLDDSYGYDYWGQGTQVTVSS,low polyreactivity
21,QVQLVESGGGLVQAGGSLRLSCAASGSTFFRNAMGWYRQAPGKERELVASITSGGNTKYADSVKGRFTISRDNAKNTVYLQMNSLKPEDTAVYYCAALFYHFARYSRLYNYWGQGTQVTVSS,low polyreactivity
